Several values for one entry are separate records, joined by “and”; a condition that tells them apart may be missing. Identical values can stand only once. Like-named read-outs stand apart in the source and are kept apart here.
T1: hGITR.mmh (human)
T1 chain: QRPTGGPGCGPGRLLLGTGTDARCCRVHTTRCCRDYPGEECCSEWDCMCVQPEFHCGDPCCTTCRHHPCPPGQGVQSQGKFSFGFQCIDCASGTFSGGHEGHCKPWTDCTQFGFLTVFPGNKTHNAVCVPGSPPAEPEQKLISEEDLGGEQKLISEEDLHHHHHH

T2: human GITR on Jurkat/hGITR/hCD20 cells (human, UniProt Q9Y5U5 26-241)
T2 sequence (looked up): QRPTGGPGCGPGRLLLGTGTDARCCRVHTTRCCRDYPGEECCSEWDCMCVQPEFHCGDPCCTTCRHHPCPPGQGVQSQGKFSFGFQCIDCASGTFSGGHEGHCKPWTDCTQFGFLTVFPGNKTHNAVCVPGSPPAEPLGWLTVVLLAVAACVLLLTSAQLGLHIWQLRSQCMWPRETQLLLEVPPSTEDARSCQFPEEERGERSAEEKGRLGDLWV


Assays:
hGITR.mmh [1] = molecular target: T1, hGITR.mmh
[2] = molecular target: T3, human complement component 1q (C1q) (human, UniProt P02745 23-245; P02746 28-253; P02747 29-245)
hGITR.mmh [3] = molecular target: T1, hGITR.mmh
biotinylated human C1q [4] = molecular target: T4, biotinylated human C1q (human, UniProt P02745 23-245; P02746 28-253; P02747 29-245)
[5] = molecular target: T3, human complement component 1q (C1q); remark: listed apart in the source
biotinylated human C1q [6] = molecular target: T4, biotinylated human C1q; remark: listed apart in the source
[7] = molecular target: T2, human GITR on Jurkat/hGITR/hCD20 cells
hGITR.mmh [8] = molecular target: T1, hGITR.mmh

T3 sequence (P02745 23-245, chain 1 of 3): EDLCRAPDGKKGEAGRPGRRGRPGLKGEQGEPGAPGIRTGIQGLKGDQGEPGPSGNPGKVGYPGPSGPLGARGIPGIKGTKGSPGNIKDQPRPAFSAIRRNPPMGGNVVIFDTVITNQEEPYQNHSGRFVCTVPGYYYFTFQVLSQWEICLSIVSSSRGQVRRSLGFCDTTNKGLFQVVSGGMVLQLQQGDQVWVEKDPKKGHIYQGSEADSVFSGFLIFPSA
T3 sequence (P02746 28-253, chain 2 of 3): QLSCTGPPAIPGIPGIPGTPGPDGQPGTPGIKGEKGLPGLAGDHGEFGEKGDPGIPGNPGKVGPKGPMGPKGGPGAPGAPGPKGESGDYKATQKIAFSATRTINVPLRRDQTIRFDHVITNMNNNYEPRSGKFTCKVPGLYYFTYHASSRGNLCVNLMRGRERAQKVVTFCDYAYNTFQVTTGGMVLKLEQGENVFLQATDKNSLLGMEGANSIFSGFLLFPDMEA
T3 sequence (P02747 29-245, chain 3 of 3): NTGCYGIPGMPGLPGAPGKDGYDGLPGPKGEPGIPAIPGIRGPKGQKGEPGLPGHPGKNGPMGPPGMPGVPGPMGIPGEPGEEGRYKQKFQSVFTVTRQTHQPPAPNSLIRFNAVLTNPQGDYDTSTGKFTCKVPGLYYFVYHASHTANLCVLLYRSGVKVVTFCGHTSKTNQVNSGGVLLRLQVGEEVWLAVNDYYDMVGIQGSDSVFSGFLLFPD
T4 sequence (P02745 23-245, chain 1 of 3): as the sequence (P02745 23-245, chain 1 of 3) above
T4 sequence (P02746 28-253, chain 2 of 3): as the sequence (P02746 28-253, chain 2 of 3) above
T4 sequence (P02747 29-245, chain 3 of 3): as the sequence (P02747 29-245, chain 3 of 3) above

Row | Binder | Kd (hGITR.mmh [1]) [nM] | koff (hGITR.mmh [1]) [s⁻¹] | kon (hGITR.mmh [1]) [M⁻¹ s⁻¹] | Kd [2] [nM] | koff [2] [s⁻¹] | kon [2] [M⁻¹ s⁻¹] | Kd (hGITR.mmh [3]) [nM] | koff (hGITR.mmh [3]) [s⁻¹] | kon (hGITR.mmh [3]) [M⁻¹ s⁻¹] | Kd (biotinylated human C1q [4]) [nM] | koff (biotinylated human C1q [4]) [s⁻¹] | kon (biotinylated human C1q [4]) [M⁻¹ s⁻¹] | Kd [5] [nM] | koff [5] [s⁻¹] | kon [5] [M⁻¹ s⁻¹] | Kd (biotinylated human C1q [6]) [nM] | koff (biotinylated human C1q [6]) [s⁻¹] | kon (biotinylated human C1q [6]) [M⁻¹ s⁻¹] | EC50 [7] [nM] | kon (hGITR.mmh [8]) | also measured
1 | REGN6545, anti-GITR x anti-C1q bispecific antibody (bispecific antibody, V domains shown) VH 1: QVQLQESGPGLVKPSETLSLTCIVSGGSISGYFWNWIRQPPGKGLEWIGYIYYSGTTIYNPSLKSRFTISLDTSKNQFSLKLTSVTAADTAVYYCARESYNPSPRYFDHWGQGTLVTVSS VH 2: EVQLVESGGGVVQPGGSLRLSCAASGFSLDDYAMHWVRQTPGKGLEWVSLISGDGSRTSYADSVKGRFTISRDNSKNSLYLKMNSLRTEDTALYYCTKDPHNSNWFDPWGQGTLVTVSS VL: not shown | 3.3 | 0.00229 | 693000 | 0.528 | 0.00162 | 3.07e+06 | 7.38 | 0.00795 | 1.08e+06 | 1860 | 0.449 | 241000 | 1.74 | 0.00582 | 3.34e+06 | 3330 | 0.658 | 198000 | 31 | 330000 M⁻¹ s⁻¹ and 274000 M⁻¹ s⁻¹ | 
2 | REGN6546, anti-GITR x anti-C1q bispecific antibody (bispecific antibody, V domains shown) VH 1: QVQLQESGPGLVKPSETLSLTCIVSGGSISGYFWNWIRQPPGKGLEWIGYIYYSGTTIYNPSLKSRFTISLDTSKNQFSLKLTSVTAADTAVYYCARESYNPSPRYFDHWGQGTLVTVSS VH 2: EVQLVQSGAEVKKPGESLKIFCKGSGYSFINDWIGWVRQMPGKGLEWMGLIFPGDSDTRYSPVFQGHVTISADQSIDTAYLQWNSLKASDTAIYYCAVLRYWHFAIWGRGTLVTVSS VL: not shown | 4.61 | 0.0031 | 673000 | 0.753 | 0.00409 | 5.43e+06 | 16 | 0.019 | 1.19e+06 | 1880 | 0.413 | 220000 | 4.63 | 0.0227 | 4.9e+06 | 8540 | 0.687 | 80500 | 23.5 | 453000 M⁻¹ s⁻¹ and 543000 M⁻¹ s⁻¹ | Kd (hGITR.mmh [8]): 7.52 nM and 20.9 nM

Source: patent US20220153819A1 (Regeneron, published 2022)
